From publication PMC9418005

Target: Omicron BA.1.1 spike trimer (includes the R346K mutation) (SARS-CoV-2) (UniProt P0DTC2)
Assay: Luminex spike-ACE2 surrogate neutralization assay

P5C3 LS monoclonal antibody
percent inhibition of ACE2 binding at 20 µg ml^−1: 100%
